Measured values as given in patent publication US20250073277A1, “METHODS FOR OBTAINING CARDIOMYOGENIC PRECURSOR CELLS” (University of Miami, published 2025).

Target: T1, human growth hormone-releasing hormone receptor (GHRHR) (human)
T1 chain: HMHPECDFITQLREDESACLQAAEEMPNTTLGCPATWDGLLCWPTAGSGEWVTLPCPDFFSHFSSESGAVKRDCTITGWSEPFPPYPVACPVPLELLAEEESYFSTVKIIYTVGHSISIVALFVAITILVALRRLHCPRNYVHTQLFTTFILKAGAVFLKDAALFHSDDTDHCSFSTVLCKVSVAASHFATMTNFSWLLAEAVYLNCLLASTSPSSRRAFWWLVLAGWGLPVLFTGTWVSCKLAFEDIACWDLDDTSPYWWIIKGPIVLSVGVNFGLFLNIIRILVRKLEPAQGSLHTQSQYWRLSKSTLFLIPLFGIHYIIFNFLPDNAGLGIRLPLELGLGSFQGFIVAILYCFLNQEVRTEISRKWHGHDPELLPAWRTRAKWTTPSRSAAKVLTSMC
Assay: cell-based or functional assay

NKX2.5 expression in differentiating hiPSCs: 2.5 fold
B1: recombinant growth hormone-releasing hormone (GHRH) (ligand)
chain: YADAIFTNSYRKVLGQLSARKLLQDIMSRQQGESNQERGARARL
